The values that follow come from patent US20260078197A1 (BIOCYTOGEN PHARMACEUTICALS BEIJING, published 2026).

As usually defined, the Kd is a measure of binding affinity in units of concentration. For orientation: koff means a measure of how fast the partners let go of each other. The kon is a measure of how fast the partners come together.

For assay [1], the target named is T1, human TFR1 expressed on CHO-S cells (human, UniProt P02786 1-760).
T1 construct: CHO-S cells transfected with a vector expressing human TFR1; also called hTFR1; CHO-S-hTFR1 cells
The assay can be described thus: flow cytometry on CHO-S-hTFR1 cells; anti-hIgG-Fc Alexa Fluor 647 secondary. As for the experimental part:
(§1) CHO-S-hTFR1 cells or CHO-S-fasTFR1 cells were transferred to a 96-well plate at a density of 10⁵ cells/well respectively. Serially diluted sample anti-TFR1 antibodies were added to the 96-well plate, and incubated at 4° C. for 30 minutes. PBS was used as a negative control (NC).

Assay [2] has as its target T2, Macaca fascicularis (crab-eating macaque) TFR1 expressed on CHO-S cells (Macaca fascicularis (crab-eating …)).
T2 construct: CHO-S cells transfected with a vector expressing fasTFR1; also called fasTFR1; CHO-S-fasTFR1 cells
T2 chain: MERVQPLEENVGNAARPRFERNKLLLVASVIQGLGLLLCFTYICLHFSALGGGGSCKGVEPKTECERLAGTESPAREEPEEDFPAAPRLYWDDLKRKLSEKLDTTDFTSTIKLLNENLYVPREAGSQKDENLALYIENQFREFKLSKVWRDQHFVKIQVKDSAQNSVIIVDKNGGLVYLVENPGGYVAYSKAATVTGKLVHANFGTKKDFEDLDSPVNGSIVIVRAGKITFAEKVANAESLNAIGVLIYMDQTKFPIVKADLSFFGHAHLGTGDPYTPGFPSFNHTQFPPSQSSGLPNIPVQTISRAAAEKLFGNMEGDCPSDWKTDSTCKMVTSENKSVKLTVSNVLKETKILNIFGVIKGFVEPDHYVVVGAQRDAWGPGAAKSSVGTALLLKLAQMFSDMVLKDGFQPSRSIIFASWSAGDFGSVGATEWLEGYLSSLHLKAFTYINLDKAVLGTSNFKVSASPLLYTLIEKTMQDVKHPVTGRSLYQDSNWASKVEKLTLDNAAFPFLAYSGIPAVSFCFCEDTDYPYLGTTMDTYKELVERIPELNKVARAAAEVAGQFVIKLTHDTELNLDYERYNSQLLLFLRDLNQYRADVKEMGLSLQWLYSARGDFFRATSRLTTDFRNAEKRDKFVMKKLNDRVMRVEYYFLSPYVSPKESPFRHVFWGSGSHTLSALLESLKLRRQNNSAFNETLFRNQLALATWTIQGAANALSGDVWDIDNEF
The assay is described as follows: flow cytometry on CHO-S-fasTFR1 cells; anti-hIgG-Fc Alexa Fluor 647 secondary. As for the experimental part:
as §1
In general terms: Flow cytometry measures light scatter and fluorescence of single cells or particles in a stream.

Assay [3] deals with T3, His-tagged human TFR1 (transferrin receptor 1) protein (human, UniProt P02786 89-760).
T3 construct: Bought protein; The order of the tag and the receptor part is not known; also called hTFR1-His; ACROBiosystems Cat #: CD1-H5243; not shown: His tag
The assay is described as follows: BLI (Octet) binning; hTFR1-His captured on HIS1K; ratio = binding of analyte 2 / binding of analyte 1; competitor (analyte 1, bound first): 23B8. As for the experimental part:
(§2) Relative positions of target protein epitope between a pair of purified anti-TFR1 antibodies were analyzed by Biolayer Interferometry (BLI) using ForteBio Octet system at 30° C. 1×HBS-EP+ buffer (10 mM 4-(2-hydroxyethyl)-1-piperazineethanesulfonic acid (HEPES), 150 mM NaCl, 3 mM ethylenediaminetetraacetic acid (EDTA) and 0.05% P20, pH7.4) diluted from HBS-EP+ buffer (10×) was used as the running buffer throughout the experiment. About 10 μg/mL of hTFR1-His protein was captured by HIS1K (Anti-Penta-HIS) for 200 seconds, and 200 nM of antibody (analyte 1) was injected at a flow rate of 30 μL/min to bind the ligand. Another antibody (analyte 2) was injected under the same conditions to determine whether the binding of different antibodies interfered with each other. The binding time was 300 seconds for each antibody.
(§3) The binding value of each antibody was obtained using Data Analysis HT 12.0. To quantify the interference of one antibody binding to another, a binding ratio was calculated to compare each pair of antibodies. The binding ratio is defined as the binding value of the second antibody (analyte 2), divided by the binding value of the first antibody (analyte 1).
For orientation: Biolayer interferometry detects binding as a change in optical thickness at a sensor tip.

Assay [4] addresses T3, His-tagged human TFR1 (transferrin …). The assay is described as follows: BLI (Octet) binning; hTFR1-His captured on HIS1K; ratio = binding of analyte 2 / binding of analyte 1; competitor (analyte 1, bound first): 24A1. Here is the method: as §2, §3
For assay [5] the target is unchanged. The assay is described as follows: BLI (Octet) binning; hTFR1-His captured on HIS1K; ratio = binding of analyte 2 / binding of analyte 1; competitor (analyte 1, bound first): 24C9. Here is the method: as §2, §3
The target is the same in assay [6]. The assay can be described thus: BLI (Octet) binning; hTFR1-His captured on HIS1K; ratio = binding of analyte 2 / binding of analyte 1; competitor (analyte 1, bound first): 24G5. Here is the method: as §2, §3
The target is the same in assay [7]. The assay can be described thus: BLI (Octet) binning; hTFR1-His captured on HIS1K; ratio = binding of analyte 2 / binding of analyte 1; competitor (analyte 1, bound first): JR141-N. Here is the method:
as §2, §3

Assay [8] has the same target. The assay can be described thus: SPR, Biacore 8K; antibody captured on Protein A chip, hTFR1-His as analyte; 1:1 Langmuir fit. Here is the method:
(§4) Purified anti-TFR1 antibodies was captured on the Protein A chip (Series S Sensor Chip Protein A) for the detection. Purified anti-TFR1 antibodies (1 μg/mL) was loaded at 10 μL/min to bind to hTFR1-His and fasTFR1-His (200 nM). The flow rate was 30 μL/min. The binding and dissociation time were set to 180 seconds and 600 seconds, respectively. The chip was regenerated after the last injection of each titration with a glycine solution (pH 2.0) at […] for 30 seconds.
(§5) As a person of ordinary skill in the art would understand, the same method with appropriate adjustments for parameters (e.g., antibody concentration) was performed for each tested antibody.

The target of assay [9] is T4, His-tagged monkey TFR1 protein (monkey (Macaca fascicularis)).
T4 construct: Bought protein; The order of the tag and the receptor part is not known; also called fasTFR1-His; ACROBiosystems Cat #: TFR-C524a; not shown: His tag
T4 chain: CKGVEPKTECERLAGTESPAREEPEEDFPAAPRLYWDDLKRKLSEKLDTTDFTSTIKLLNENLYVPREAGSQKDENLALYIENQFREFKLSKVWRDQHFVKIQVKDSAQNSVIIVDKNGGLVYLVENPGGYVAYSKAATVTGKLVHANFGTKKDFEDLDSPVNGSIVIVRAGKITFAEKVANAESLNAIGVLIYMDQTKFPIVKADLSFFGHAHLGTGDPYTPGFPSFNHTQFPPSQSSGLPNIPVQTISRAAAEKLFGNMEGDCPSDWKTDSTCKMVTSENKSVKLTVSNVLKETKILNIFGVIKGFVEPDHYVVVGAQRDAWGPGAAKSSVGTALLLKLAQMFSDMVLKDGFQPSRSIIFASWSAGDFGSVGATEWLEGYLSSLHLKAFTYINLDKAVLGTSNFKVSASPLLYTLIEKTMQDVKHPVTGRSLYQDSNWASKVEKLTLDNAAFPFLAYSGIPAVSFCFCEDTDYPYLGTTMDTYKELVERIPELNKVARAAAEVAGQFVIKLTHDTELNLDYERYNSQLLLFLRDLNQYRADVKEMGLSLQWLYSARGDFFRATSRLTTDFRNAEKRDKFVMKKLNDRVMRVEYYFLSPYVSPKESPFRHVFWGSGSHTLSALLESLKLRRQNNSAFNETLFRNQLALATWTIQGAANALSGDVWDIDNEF
The assay can be described thus: SPR, Biacore 8K; antibody captured on Protein A chip, fasTFR1-His as analyte; 1:1 Langmuir fit. As for the experimental part: as §4, §5

T1 sequence (P02786 whole entry): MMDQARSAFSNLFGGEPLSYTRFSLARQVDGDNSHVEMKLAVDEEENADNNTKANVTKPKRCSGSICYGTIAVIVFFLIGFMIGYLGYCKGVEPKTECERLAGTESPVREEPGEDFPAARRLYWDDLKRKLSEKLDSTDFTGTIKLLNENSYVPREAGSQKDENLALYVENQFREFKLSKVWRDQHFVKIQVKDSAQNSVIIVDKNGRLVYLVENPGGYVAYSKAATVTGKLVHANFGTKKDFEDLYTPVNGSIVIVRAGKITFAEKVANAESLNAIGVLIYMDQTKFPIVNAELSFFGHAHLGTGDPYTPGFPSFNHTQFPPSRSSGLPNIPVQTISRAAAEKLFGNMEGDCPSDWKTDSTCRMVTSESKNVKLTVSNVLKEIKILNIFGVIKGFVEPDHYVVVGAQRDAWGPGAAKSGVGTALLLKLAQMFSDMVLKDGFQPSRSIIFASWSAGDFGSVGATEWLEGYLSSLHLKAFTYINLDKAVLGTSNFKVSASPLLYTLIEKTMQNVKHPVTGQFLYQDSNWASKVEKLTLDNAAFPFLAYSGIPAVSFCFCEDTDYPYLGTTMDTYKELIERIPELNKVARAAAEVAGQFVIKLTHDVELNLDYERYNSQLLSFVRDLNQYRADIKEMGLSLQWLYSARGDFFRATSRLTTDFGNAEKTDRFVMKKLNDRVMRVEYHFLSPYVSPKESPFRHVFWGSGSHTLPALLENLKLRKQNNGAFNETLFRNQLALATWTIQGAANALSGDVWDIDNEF
T3 sequence (P02786 89-760 limits assumed): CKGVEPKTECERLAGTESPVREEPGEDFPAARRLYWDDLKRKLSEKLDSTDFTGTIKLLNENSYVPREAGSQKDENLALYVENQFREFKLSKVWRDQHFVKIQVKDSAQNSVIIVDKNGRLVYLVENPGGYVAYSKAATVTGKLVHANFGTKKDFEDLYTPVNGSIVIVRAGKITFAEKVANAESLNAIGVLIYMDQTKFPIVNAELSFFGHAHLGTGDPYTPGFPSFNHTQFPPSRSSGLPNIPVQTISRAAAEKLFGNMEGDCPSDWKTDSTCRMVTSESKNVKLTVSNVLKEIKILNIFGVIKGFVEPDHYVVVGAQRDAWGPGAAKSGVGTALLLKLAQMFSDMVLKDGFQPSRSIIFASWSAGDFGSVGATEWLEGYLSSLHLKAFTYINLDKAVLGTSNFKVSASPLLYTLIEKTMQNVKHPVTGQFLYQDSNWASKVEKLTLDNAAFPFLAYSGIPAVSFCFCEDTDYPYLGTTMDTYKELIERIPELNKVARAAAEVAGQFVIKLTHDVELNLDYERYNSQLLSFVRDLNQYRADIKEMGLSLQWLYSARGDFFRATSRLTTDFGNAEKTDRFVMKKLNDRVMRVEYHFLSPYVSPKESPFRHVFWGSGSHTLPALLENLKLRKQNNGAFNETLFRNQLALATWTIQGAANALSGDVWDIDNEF

B1: JR141-N (antibody, V domains shown)
VH: EVQLVQSGAEVKKPGESLKISCKGSGYSFTNYWLGWVRQMPGKGLEWMGDIYPGGDYPTYSEKFKVQVTISADKSISTAYLQWSSLKASDTAMYYCARSGNYDEVAYWGQGTLVTVSS
VL: DIVMTQTPLSLSVTPGQPASISCRSSQSLVHSNGNTYLHWYLQKPGQSPQLLIYKVSNRFSGVPDRFSGSGSGTDFTLKISRVEAEDVGVYYCSQSTHVPWTFGQGTKVEIK
notes: also called positive control; JR141 VH and VL on human IgG1 N297A
Turning to B1, the “Percentage of Positive Cells” value in assay [1] is 45%; in [2], 37.2%. Besides, the binding ratio turned out to be 0.7 in assay [3]; 0 in [4]; 1.1 in assay [5]; 0 in assay [6]; 0 in assay [7].

B2: 23B8 (antibody, V domains shown)
VH: QVTLKESGGGLVKPGGSLRLSCAASGFPFSNAWMNWVRQAPGKGLEWVGHIKSKTDGGTTDYAAPVKGRFTISRDDSKNMVFLQMNSLKTEDTAVYYCTTDRAYCGGDCSHYYYHDLDVWGQGTTVTVSS
notes: Heavy-chain antibody without light chain; also called anti-TFR1 antibody 23B8
Turning to B2, the “Percentage of Positive Cells” value came to 38.8% in assay [1] and 39.6% in assay [2]. Also, the Kd in assay [8] amounted to 8.73 nM; in assay [9] it was 19.5 nM. Moreover, the koff in assay [8] is 0.000132 s⁻¹; in [9], 0.00799 s⁻¹. Moreover, the kon in [8] was 15100 M⁻¹ s⁻¹; in [9], 410000 M⁻¹ s⁻¹. The binding ratio in assay [3] was found to be 0.1; in [4], 0.2; in [5], 1.4; in assay [6], 0.3; in [7] it was 1.1.

B3: 24A1 (antibody, human IgG1, V domains shown)
VH: EVQLVESGGGLVQPGGSLRLTCAASGFTFSSYAMSWVRQAPGKGLERVSEISGSGSSTNYADSVKGRFTISRDNSKNTLYLQMNSLRAEDTAVYYCAKDDSSGWAFNIWDQGTVVTVSS
notes: Heavy-chain antibody without light chain; also called anti-TFR1 antibody 24A1
For the molecule B3, the entries for the “Percentage of Positive Cells” value in [1] and in assay [2] were 56.4% and 50.9%, respectively. The equilibrium dissociation constant (Kd) is 2.93 nM in assay [8] and 2.32 nM in [9]. Also, the results for the off-rate (koff) in assay [8] and in assay [9] were 7.68e-05 s⁻¹ and 0.000101 s⁻¹, respectively. Moreover, the kon turned out to be 26200 M⁻¹ s⁻¹ in [8] and 43600 M⁻¹ s⁻¹ in assay [9]. Also, the binding ratio in [3] was 0; in [4], 0.1; in [5], 0.1; in assay [6], 0.1; in assay [7], 0.3.

B4: 24G5 (antibody, human IgG1, V domains shown)
VH: QLQLQESGGGLVQPGGSLRLTCAASGFTFSSFAMSWVRQAPGKGLERVSEISDSGGNTYYADSVKGRFTISRDNSKNTLYLQMNSLRAEDTAVYYCAKDDSSGWAFNIWDQGTVVTVSS
notes: Heavy-chain antibody without light chain; also called anti-TFR1 antibody 24G5
Consider B4, for which the “Percentage of Positive Cells” value in assay [1] came to 54.3%; in assay [2], 51.2%. Also, the figures for the dissociation constant Kd in assay [8] and in [9] were 2.05 nM and 1.39 nM, respectively. Also, the off-rate (koff) turned out to be 8.68e-05 s⁻¹ in assay [8] and 8.79e-05 s⁻¹ in assay [9]. For the same molecule, the values for the kon in assay [8] and in assay [9] were 42400 M⁻¹ s⁻¹ and 63300 M⁻¹ s⁻¹, respectively. Also, the binding ratio in assay [3] turned out to be 0; in assay [4], 0; in assay [5], 0; in [6], 0; in assay [7], 0.2.

B5: 24C9 (antibody, human IgG1, V domains shown)
VH: EVQLVQSGGGVVQPGRSLRLSCAASGFTLSSYGMYWVRQAPGKGREWVAFIRFDESKKYYADSVKGRFTISRDNSKNTLYLQMNSLRAEDTAVYYCARDGEGGYCTNGVCHGLDVWGQGTTVTVSS
notes: Heavy-chain antibody without light chain; also called anti-TFR1 antibody 24C9
As to B5, the “Percentage of Positive Cells” value in assay [1] worked out at 45.8%. The molecule also displayed a Kd in assay [8] of 14.3 nM. The same molecule yielded a koff in [8] of 0.000383 s⁻¹. Besides, the kon in assay [8] stood at 26800 M⁻¹ s⁻¹. Moreover, the binding ratio in assay [3] came to 0.6; in assay [4], 0.1; in assay [5], 0; in assay [6], 0.2; in [7], 0.8.
